# Test results taken from publication PMC4541418.
# System: Fur (HpFur) (Helicobacter pylori (G27?))
# Test: DNase I footprinting
# Conditions: pOPI and pOPII; 150 uM dipyridyl, 1 mM DTT then 5 mM H2O2, versus no H2O2; 10 mM Tris-Cl pH 7.85, 50 mM NaCl, 10 mM KCl, 0.02% Igepal CA-630, 10% glycerol, 0.1 mM DTT (plus 1 or 5 mM DTT or 5 mM H2O2); 150 uM (NH4)2Fe(SO4)2 or …
substance,measurement,value
"Ppfr probe (apo-operators pOPI, pOPII, pOPIII; holo-operator pOPIV)",binding signal (fold higher Fur needed),5
